Reference: article PMC8611336

Assays:
[1] = target: SUVs of PM lipid composition; experiment: microscale thermophoresis (MST); settings: value read at the highest lipid concentration, about 1600 µM; n = 3; parent: est. 105; read off a plot
[2] = target: SUVs of NE lipid composition; experiment: microscale thermophoresis (MST); settings: value read at the highest lipid concentration, about 1600 µM; n = 3; parent: est. 88; read off a plot

- response [1]: 35%
- response [2]: 50%
Substance: AαH peptide (Apq12 58-68, …) L58D; F61R; I62N; F68N
